Columns and labels:
可溶性ヒトRANKL蛋白質 [1] = target: T1, 可溶性ヒトRANKL蛋白質 (human, UniProt O14788 140-317, limits assumed, biotinylated with NHS-biotin at 20:1 molar ratio in the competition ELISA (sites not given); not biotinylated in the cell assays); test: competition ELISA: inhibition of biotinylated shRANKL binding to coated RANK-Fc
T1 construct: Soluble form; also called shRANKL; sRANKL
T1 sequence (looked up): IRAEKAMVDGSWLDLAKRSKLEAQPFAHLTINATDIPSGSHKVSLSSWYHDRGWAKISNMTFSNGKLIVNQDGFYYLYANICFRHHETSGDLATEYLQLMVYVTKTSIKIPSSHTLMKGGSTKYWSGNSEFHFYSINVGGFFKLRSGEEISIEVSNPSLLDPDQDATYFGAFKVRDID

可溶性ヒトRANKL蛋白質 [2] = target: T1, 可溶性ヒトRANKL蛋白質; test: cell-based or functional assay
可溶性ヒトRANKL蛋白質 [3] = target: T1, 可溶性ヒトRANKL蛋白質; test: not described in an example; paragraph 39 names optical biosensor analysis for the Kd
可溶性ヒトRANKL蛋白質 [4] = target: T1, 可溶性ヒトRANKL蛋白質; test: competition ELISA: soluble competitor against biotinylated shRANKL binding to coated RANK-Fc

B1: OPG−Fc (Fc fusion, UniProt O00300 22-201, looked up)
chain: ETFPPKYLHYDEETSHQLLCDKCPPGTYLKQHCTAKWKTVCAPCPDHYYTDSWHTSDECLYCSPVCKELQYVKQECNRTHNRVCECKEGRYLEIEFCLKHRSCPPGFGVVQAGTPERNTVCKRCPDGFFSNETSSKAPCRKHTNCSVFGLLLTQKGNATHDNICSGNSESTQKCGIDVTL
notes: also called osteoprotegerin-Fc; not shown: Fc part; not described
- IC50 (可溶性ヒトRANKL蛋白質 [1]): ~0.5 nM
- IC50, osteoclast formation from mouse bone marrow cells stimulated by human sRANKL (TRAP-positive cells per well) (可溶性ヒトRANKL蛋白質 [2]): ~0.2 µg/mL
- concentration of complete inhibition, osteoclast formation from mouse bone marrow cells stimulated by human sRANKL (可溶性ヒトRANKL蛋白質 [2]): 1 µg/mL

B2: マウスモノクローナル抗体14F3 (antibody, V domains shown)
VH: EVQLVESGGDLVKPGGSLKLSCAASGFTFSRYGMSWVRQTPDKRLEWVATISSGGSYTYYPDSVKGRFTISRDNAKNTLYLQMSSLKSEDTAMYYCARLDGYNYRWYFDVWGTGTTVTVSS
VL: DIVMTQSHKFMSTSVGDRVSITCKASQDVSSAVAWYQQKPGQSPKLLIYSASYRYTGVPDRFTGSGSGTDFTFTISSVQAEDLAVYYCQQHYSSPRTFGGGTNLEIKR
notes: Murine IgG2a/kappa purified from hybridoma; also called RANKL mAb 14F3; mAb14F3
- IC50 (可溶性ヒトRANKL蛋白質 [1]): ~2 nM
- IC50, osteoclast formation from human monocytes with human soluble RANKL and M-CSF (multinucleated cells) (可溶性ヒトRANKL蛋白質 [2]): ~4 µg/mL
- IC50, osteoclast formation from mouse bone marrow cells stimulated by human sRANKL (TRAP-positive cells per well) (可溶性ヒトRANKL蛋白質 [2]): ~0.2 µg/mL
- concentration of complete inhibition, osteoclast formation from mouse bone marrow cells stimulated by human sRANKL (可溶性ヒトRANKL蛋白質 [2]): 1 µg/mL
- Kd (可溶性ヒトRANKL蛋白質 [3]): ~0.1 nM

B3: ヒトRANK−Fc融合蛋白質 (Fc fusion, human, UniProt Q9Y6Q6 30-212, looked up)
chain: IAPPCTSEKHYEHLGRCCNKCEPGKYMSSKCTTTSDSVCLPCGPDEYLDSWNEEDKCLLHKVCDTGKALVAVVAGNSTTPRRCACTAGYHWSQDCECCRRNTECAPGLGAQHPLQLNKDTVCKPCLAGYFSDAFSSTDKCRPWTNCTFLGKRVEHHGTEKSDAVCSSSLPARKPPNEPHVYLP
notes: Construct limits and Fc not described; also called RANK−Fc蛋白質; not shown: Fc part
- IC50, osteoclast formation from human monocytes with human soluble RANKL and M-CSF (multinucleated cells) (可溶性ヒトRANKL蛋白質 [2]): ~0.5 µg/mL
- concentration of complete inhibition, osteoclast formation from mouse bone marrow cells stimulated by human sRANKL (可溶性ヒトRANKL蛋白質 [2]): 10 µg/mL
- IC50 (可溶性ヒトRANKL蛋白質 [4]): ~6 nM
